Here are results for one molecule from patent US20220332804A1 (CSL INNOVATION, published 2022).

Positions count from the first letter of the chain named.

Common to all, as to assay: SPR; KD relative to WT C2;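 further: biacore SPR at 37 °C, anti-C2 mAbs captured on an anti-human IgG chip, alanine or serine C2 surface mutants tested, KD from 1:1 fit compared with wild-type C2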
For assay [1], the target named is T1, human C2 K329A (human, UniProt P06681 21-752).
T1 sequence: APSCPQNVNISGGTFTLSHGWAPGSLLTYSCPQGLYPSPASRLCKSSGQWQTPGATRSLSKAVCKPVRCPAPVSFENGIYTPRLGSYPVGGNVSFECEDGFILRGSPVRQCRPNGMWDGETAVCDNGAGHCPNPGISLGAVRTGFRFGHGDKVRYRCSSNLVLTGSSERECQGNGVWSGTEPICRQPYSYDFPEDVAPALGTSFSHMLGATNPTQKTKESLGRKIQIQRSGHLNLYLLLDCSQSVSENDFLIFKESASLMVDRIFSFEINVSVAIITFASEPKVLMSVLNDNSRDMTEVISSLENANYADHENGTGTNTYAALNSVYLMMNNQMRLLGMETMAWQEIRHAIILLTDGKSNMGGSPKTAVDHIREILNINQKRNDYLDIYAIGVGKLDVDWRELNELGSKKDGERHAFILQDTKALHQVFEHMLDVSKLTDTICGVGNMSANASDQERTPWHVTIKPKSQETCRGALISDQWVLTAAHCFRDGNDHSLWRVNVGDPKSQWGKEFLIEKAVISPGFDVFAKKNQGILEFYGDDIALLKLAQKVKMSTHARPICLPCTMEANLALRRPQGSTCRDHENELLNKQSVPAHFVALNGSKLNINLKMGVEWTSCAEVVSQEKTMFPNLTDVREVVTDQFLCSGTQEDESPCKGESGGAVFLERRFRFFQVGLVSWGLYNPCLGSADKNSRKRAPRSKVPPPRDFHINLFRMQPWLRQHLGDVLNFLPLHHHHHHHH

The target in assay [2] is T2, human C2 V418A (human, UniProt P06681 21-752).
T2 sequence: T1 sequence with A309K, V398A

Assay [3] deals with T3, human C2 D431A (human, UniProt P06681 21-752).
T3 sequence: T1 sequence with A309K, D411A

Assay [4] has as its target T4, human C2 H451A (human, UniProt P06681 21-752).
T4 sequence: T1 sequence with A309K, H431A

B1: RF16-214 (antibody, V domains shown)
VH: EVQLLESGGGLVQPGGSLRLSCAASGFTFSWYQMMWVRQAPGKGLEWVSRIYPSGGGTAYADSVKGRFTISRDNSKNTLYLQMNSLRAEDTAVYYCARDAGYGDNWGQGTLVTVSS
VL: QSALTQPPSVSVSPGQTASITCSGDKLGEKYASWYQQKAGQSPVMVIYQDRKRPSGIPERFSGSNSGNTATLTISGTQAMDEADYYCQAWDTRAVVFGGGTKLTVLG
As to B1, the Fold diff in assay [1] was 2 fold; in assay [2] it was 1 fold; in assay [3], 2 fold; in assay [4], 4 fold.
